Laboratory results taken from paper PMC2843633.

Biological target: human fibrinogen receptor (GPIIb/IIIa), purified (human) (UniProt P05106)
Test: ELISA; GPIIb/IIIa coated at 40 nM on Nunc Maxisorb plates; 5′Nuc/SUMO 250 – 1.95 nM in solution, 0.1% Tween 20; detected with polyclonal anti-5′Nuc IgG or anti-SUMO IgG; apparent KD from four experiments

B1: 5′Nuc/SUMO fusion protein (Glossina morsitans morsitans 5′nucleotidase-related protein, recombinant, refolded) (enzyme)
chain: DDLYPLTIMHTNDFHARFEETNVKGNPCKSGEKCIGGLARVLHTIKKIIKEQEKKNIESLYINAGDNFQGTIWYNIGRWNVTSELMNIQPPDVMVLGNHEFDHGIDGLLPFLNNMDKTEIVVANMDARDEPQVAKKIKPFTIIKKKYRNIGVIGVVVEEVPDLANTGKLKFRNESEAILEAARNLKKEDPSVNIIIVVSHVGFDVDKIIAERTGSEVDIIVGGHSHTVLYTGTPPGPEKPEDNYPYVYNHPSGNKVLVVQAVCHAKYVGNLTVFFDKKGKVVTYEGAPIYMDTKVEQDKDVLEAMKPWRKLIDEKTKLVVGRTNVDLPRDICRSEECALGNLYTDSMIYAFGGKENCKSGSTWTTAPIAFVHAGAMRSSLHQGDILYSDALLLSPFTNMVVAYDLPGAQLKAALEFSAAPKNEDEKRRFLQMSGLKVTYNMSRAANNRIVDLKVRTNVCPYDQYENLDEKKTYRVVSPSFLQGGGDGFKMLRDYAKNIQNQKIDLDALVDYLKKFSPLAPKAEGRITIIH
- Kd: 92 nM
